Test [1] has as its target T1, human CD19 expressed on transfected DT40 chicken B-lymphoma cells (DT40hCD19+) (human, UniProt P15391 20-556).
T1 construct: Human CD19 cDNA under a chicken actin promoter (pApuro) in DT40 cells; also called human CD19 co-receptor
T1 sequence: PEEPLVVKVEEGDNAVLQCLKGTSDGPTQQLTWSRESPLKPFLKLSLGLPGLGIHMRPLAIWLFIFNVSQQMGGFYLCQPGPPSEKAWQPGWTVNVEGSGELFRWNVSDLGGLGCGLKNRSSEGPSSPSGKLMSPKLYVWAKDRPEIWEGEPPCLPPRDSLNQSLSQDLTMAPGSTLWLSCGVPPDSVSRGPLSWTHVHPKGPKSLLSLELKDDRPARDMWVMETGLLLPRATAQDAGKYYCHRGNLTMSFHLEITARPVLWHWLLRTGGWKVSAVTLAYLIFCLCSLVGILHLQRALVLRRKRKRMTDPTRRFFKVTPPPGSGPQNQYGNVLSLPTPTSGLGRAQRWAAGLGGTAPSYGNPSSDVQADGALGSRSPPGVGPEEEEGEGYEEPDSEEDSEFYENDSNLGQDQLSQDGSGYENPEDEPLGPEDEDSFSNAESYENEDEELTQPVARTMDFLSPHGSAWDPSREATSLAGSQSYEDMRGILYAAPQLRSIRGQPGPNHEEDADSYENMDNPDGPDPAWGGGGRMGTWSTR
Put plainly: flow cytometry, biotin-labeled CD19-L plus Avidin-FITC. The text has this:
(§1) Binding of biotin-labeled soluble CD19-L protein to the surface of CD19 co-receptor positive cells was examined using immunofluorescence staining combined with flow cytometry and deconvolution microscopy.

Test [2] concerns the target T2, CD19 co-receptor on CD19+ human B-lineage ALL cells (primary leukemic cells; NALM-6 cell line) (human, UniProt P15391 20-556).
T2 construct: Endogenous CD19 on leukemia cells
T2 sequence: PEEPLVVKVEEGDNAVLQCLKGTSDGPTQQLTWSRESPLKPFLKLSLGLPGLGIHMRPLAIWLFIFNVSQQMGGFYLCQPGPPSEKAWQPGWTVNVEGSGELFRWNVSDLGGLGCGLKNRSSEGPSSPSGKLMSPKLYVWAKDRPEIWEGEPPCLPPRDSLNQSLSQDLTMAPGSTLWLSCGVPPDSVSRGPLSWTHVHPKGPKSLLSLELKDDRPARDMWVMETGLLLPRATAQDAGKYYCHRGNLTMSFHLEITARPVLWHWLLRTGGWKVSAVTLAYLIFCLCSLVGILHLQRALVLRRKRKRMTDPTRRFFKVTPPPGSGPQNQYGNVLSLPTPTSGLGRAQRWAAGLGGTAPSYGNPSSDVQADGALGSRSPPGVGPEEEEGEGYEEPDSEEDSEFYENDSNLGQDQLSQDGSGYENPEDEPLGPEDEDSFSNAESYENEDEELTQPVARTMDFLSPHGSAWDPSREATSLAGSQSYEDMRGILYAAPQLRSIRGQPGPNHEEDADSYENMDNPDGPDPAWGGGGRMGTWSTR
Put plainly: deconvolution microscopy, biotin-labeled CD19-L plus Avidin-FITC. As for the experimental part:
Deconvolution microscopy was performed using the Deltavision deconvolution system from Applied Precision which consists of a Nikon TE200 inverted microscope outfitted for epifluorescence and fitted with an Applied Precision nanomover stage for precise control of the stage. Image collection was through a Photometrics CH350/L liquid cooled CCD camera. The system was controlled by SoftWoRx imaging software run on a Silicon Graphics O2 workstation.
as §1

B1: biotin-labeled soluble recombinant human CD19-L protein (ligand)
chain: MYMSMTEPSQDYVPASQSYPGPSLESEDFNIPPITPPSLQDHSLVHLNEVESGYHSLCHPMNHNGLLPFHPQNMDLPEITVSNMLGQDGTLLSNSISVMPDIRNPEGTQYSSHPQMAAMRPRGQPAQIRQQPGMMPHGQLTTINQSQLSAQLGLNMGGSNVPHNSPSPPGSKSATPSPSSSVHEDEGDDTSKINGGEKRPASDMGKKPKTPKKKKKKDPNEPQKPVSAYALFFRDTQAAIKGQNPNATFGEVSKIVASMWDGLGEEQKQVYKKKTEAAKKEYLKQLAAYRASLVSKSYSEPVDVKTSQPPQLINSKPSVFHGPSQAHSALYLSSHYHQQPGMNPHLTAMHPSLPRNIAPKPNNQMQVTVSIANMAVSPPPPLQISPPLHQHLNMQQHQPLTMQQPLGNQLPMQVQSALHSPTMQQGFTLQPDYQTIINPTSTAAQVVTQAMEYVRSGCRNPPPQPVDWNNDYCSSGGMQRDKALYLT
modifications: biotin-labeled (sites not given) ; Biotin-labelled; sites and chemistry not stated.
notes: Same recombinant protein as m1, labelled with biotin and detected with Avidin-FITC; also called biotin-labeled CD19-L; biotin-labeled soluble CD19-L protein; not shown: N-terminal pFastBacHT leader (6xHis tag, spacer region, rTEV cleavage site)
Regarding B1, the binding result in test [1] and in test [2] was “binds” throughout.

The values above are taken from patent US20120141505A1 (published 2012).
